Experimental findings from PMC12120876 are described below.

This experiment addresses nLUC‐TaWUS‐like‐5D (wheat (Triticum aestivum)). The experiment in a line: split reporter.

As for SnRK1‐4B‐cLUC (natural protein), the luminescence signal, fold over the other three pairs of co-infiltration samples stood at 5 fold.
